± gives the standard deviation of the averaged measurements.
B1: library; a variant is named by its letters at N, in order (parent)
chain: GCUGUCACCGAGAAACUGUGAAGUAUAUCUUAAACCUGGGCACUUAAAAGAUAUAUGGAGUUAGUAGUGCAACCUGCUCGGUCUGAUGAGUCCNNNNNNGGACGAAACAGC

Tests used:
cyclic di-GMP [1] = variants of: B1; test: normalized RNA/DNA level without ligand (relative to sTRSVctl = 100) (log10 (% of sTRSVctl)); HEK293T; ligand: cyclic di-GMP (c-di-GMP-II aptamer); higher = less ribozyme self-cleavage, higher mRNA level; details: reporter: mCherry (pCS4076), ligand present: no
Outline: (§1)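 RNA level was computed as RNA reads over DNA reads divided by a spiked-in non-cleaving sequence or by the top sequences, then scaled and log-transformed. Scaling was ×100 with log10, the top group was 25 sequences, and the threshold was ≥100 DNA reads. The reads came from HEK293T cells transfected at 4 µg per 6-well well with ribozyme switch library plasmids (mCherry, or eGFP in some ligand experiments). Total RNA was extracted with EDTA 72 h after transfection, with any ligand added 1 h before it.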

cyclic di-GMP [2] = variants of: B1; test: normalized RNA/DNA level with ligand (relative to sTRSVctl = 100) (log10 (% of sTRSVctl)); HEK293T; ligand: cyclic di-GMP (c-di-GMP-II aptamer); ligand concentration (+) RNA-Seq: 1 mM; higher = less ribozyme self-cleavage, higher mRNA level; details: reporter: mCherry (pCS4076), ligand present: yes
Outline: as §1

| Variant | normalized RNA/DNA level without ligand (log10) (cyclic di-GMP [1]) | normalized RNA/DNA level with ligand (log10) (cyclic di-GMP [2]) |
| --- | --- | --- |
| GUCAGA | 1.56 ± 0.057 | 1.76 ± 0.076 |
| GUCAGC | 1.67 ± 0.017 | 1.83 ± 0.17 |
| GUCAGU | 1.63 ± 0.022 | 1.77 ± 0.15 |
| GUCCUU | 1.7 ± 0.019 | 1.87 ± 0.1 |
| GUCCUA | 1.709 ± 0.0036 | 1.88 ± 0.083 |
| GUCCUC | 1.75 ± 0.026 | 1.9 ± 0.1 |
| CUCCCU | 1.661 ± 0.0018 | 1.76 ± 0.05 |
| CUCCCG | 1.79 ± 0.088 | 1.91 ± 0.14 |
| CUCCCC | 1.82 ± 0.032 | 1.9 ± 0.089 |
| CUCCCA | 1.718 ± 0.0069 | 1.87 ± 0.052 |
| UUCCCC | 1.84 ± 0.053 | 1.94 ± 0.14 |
| UUCCCG | 1.85 ± 0.1 | 1.94 ± 0.13 |
| UUCCCA | 1.79 ± 0.07 | 1.92 ± 0.12 |
| UUCCCU | 1.766 ± 0.012 | 1.89 ± 0.048 |
| GUCCAC | 1.6752 ± 0.00073 | 1.82 ± 0.054 |
| GUCCAU | 1.66 ± 0.054 | 1.83 ± 0.14 |
| GUCCAG | 1.76 ± 0.07 | 1.83 ± 0.1 |
| CUCCGA | 1.69 ± 0.016 | 1.82 ± 0.15 |
| CUCCGC | 1.78 ± 0.019 | 1.91 ± 0.073 |
| CUCCGG | 1.79 ± 0.072 | 1.87 ± 0.17 |
| AUCCGA | 1.56 ± 0.017 | 1.73 ± 0.15 |
| AUCCGG | 1.85 ± 0.024 | 1.93 ± 0.023 |
| AUCCGU | 1.74 ± 0.041 | 1.89 ± 0.12 |
| AUCCGC | 1.76 ± 0.032 | 1.88 ± 0.13 |

| Variant | normalized RNA/DNA level without ligand (log10) (cyclic di-GMP [1]) | normalized RNA/DNA level with ligand (log10) (cyclic di-GMP [2]) |
| --- | --- | --- |
| GUCGAA | 1.49 ± 0.068 | 1.65 ± 0.11 |
| GUCGAC | 1.5985 ± 0.0011 | 1.76 ± 0.16 |
| AUCAUG | 1.62 ± 0.019 | 1.78 ± 0.11 |
| AUCAUC | 1.8459 ± 0.00049 | 1.935 ± 0.0035 |
| AUCAUA | 1.615 ± 0.0089 | 1.74 ± 0.075 |
| AUCAUU | 1.695 ± 0.0081 | 1.79 ± 0.12 |
| CUCAUG | 1.68 ± 0.031 | 1.82 ± 0.14 |
| CUCAUU | 1.79 ± 0.079 | 1.9 ± 0.12 |
| AUCCUC | 1.823 ± 0.0034 | 1.94 ± 0.079 |
| AUCCUA | 1.61 ± 0.041 | 1.78 ± 0.083 |
| AUCCUU | 1.74 ± 0.042 | 1.89 ± 0.081 |
| CUCACC | 1.7 ± 0.079 | 1.825 ± 0.013 |
| CUCACG | 1.78 ± 0.037 | 1.86 ± 0.16 |
| CUCACU | 1.57 ± 0.052 | 1.77 ± 0.092 |
| CUCACA | 1.66 ± 0.033 | 1.83 ± 0.13 |
| CUCAGC | 1.76 ± 0.076 | 1.89 ± 0.13 |
| CUCAGG | 1.8 ± 0.037 | 1.87 ± 0.14 |
| CUCAGU | 1.75 ± 0.018 | 1.83 ± 0.07 |
| AUCCAA | 1.56 ± 0.053 | 1.73 ± 0.12 |
| AUCCAU | 1.65 ± 0.048 | 1.81 ± 0.088 |
| AUCCAG | 1.719 ± 0.012 | 1.85 ± 0.13 |
| AUCCAC | 1.718 ± 0.016 | 1.85 ± 0.088 |
| UUCCUG | 1.776 ± 0.017 | 1.91 ± 0.11 |
| UUCCUU | 1.73 ± 0.018 | 1.9 ± 0.099 |

| Variant | normalized RNA/DNA level without ligand (log10) (cyclic di-GMP [1]) | normalized RNA/DNA level with ligand (log10) (cyclic di-GMP [2]) |
| --- | --- | --- |
| UUCCUA | 1.68 ± 0.018 | 1.83 ± 0.11 |
| UUCCUC | 1.779 ± 0.013 | 1.91 ± 0.1 |
| GUCAAG | 1.57 ± 0.031 | 1.75 ± 0.077 |
| GUCAAC | 1.65 ± 0.055 | 1.79 ± 0.14 |
| UUCAAG | 1.689 ± 0.0038 | 1.82 ± 0.086 |
| UUCAAA | 1.611 ± 0.0055 | 1.79 ± 0.057 |
| UUCGAA | 1.6 ± 0.041 | 1.82 ± 0.043 |
| UUCGAC | 1.659 ± 0.0063 | 1.79 ± 0.12 |
| GUCCGA | 1.63 ± 0.024 | 1.78 ± 0.14 |
| GUCCGC | 1.84 ± 0.03 | 1.93 ± 0.071 |
| GUCCGU | 1.65 ± 0.038 | 1.82 ± 0.069 |
| GUCCGG | 1.84 ± 0.12 | 1.96 ± 0.11 |
| GUCCCG | 1.76 ± 0.058 | 1.85 ± 0.21 |
| GUCCCU | 1.77 ± 0.024 | 1.92 ± 0.091 |
| GUCCCC | 1.76 ± 0.029 | 1.86 ± 0.061 |
| GUCCCA | 1.772 ± 0.0084 | 1.87 ± 0.075 |
| GUCACA | 1.663 ± 0.0013 | 1.77 ± 0.17 |
| GUCACC | 1.708 ± 0.011 | 1.85 ± 0.055 |
| CUCGAC | 1.714 ± 0.0032 | 1.85 ± 0.069 |
| CUCGAG | 1.71 ± 0.034 | 1.86 ± 0.11 |
| UUCACC | 1.778 ± 0.0039 | 1.89 ± 0.078 |
| UUCACG | 1.803 ± 0.018 | 1.9 ± 0.09 |
| UUCACA | 1.81 ± 0.029 | 1.89 ± 0.16 |
| UUCCGA | 1.79 ± 0.045 | 1.92 ± 0.12 |

| Variant | normalized RNA/DNA level without ligand (log10) (cyclic di-GMP [1]) | normalized RNA/DNA level with ligand (log10) (cyclic di-GMP [2]) |
| --- | --- | --- |
| UUCCGC | 1.771 ± 0.0064 | 1.89 ± 0.084 |
| UUCCGG | 1.84 ± 0.045 | 1.93 ± 0.043 |
| UUCAUU | 1.77 ± 0.074 | 1.89 ± 0.094 |
| UUCAUG | 1.698 ± 0.013 | 1.83 ± 0.087 |
| UUCAUA | 1.69 ± 0.019 | 1.82 ± 0.12 |
| AUCGAG | 1.56 ± 0.058 | 1.78 ± 0.1 |
| AUCGAC | 1.631 ± 0.012 | 1.8 ± 0.075 |
| AUCGAA | 1.45 ± 0.084 | 1.67 ± 0.09 |
| UUCAGA | 1.7 ± 0.084 | 1.81 ± 0.069 |
| UUCAGC | 1.78 ± 0.082 | 1.9 ± 0.13 |
| UUCAGG | 1.82 ± 0.048 | 1.88 ± 0.12 |
| UUCAGU | 1.75 ± 0.023 | 1.89 ± 0.069 |
| AUCAGU | 1.67 ± 0.065 | 1.82 ± 0.02 |
| AUCAGG | 1.62 ± 0.072 | 1.77 ± 0.12 |
| AUCAGC | 1.82 ± 0.025 | 1.88 ± 0.13 |
| CUCCAG | 1.73 ± 0.07 | 1.86 ± 0.055 |
| CUCCAA | 1.46 ± 0.096 | 1.72 ± 0.083 |
| CUCCAC | 1.719 ± 0.016 | 1.84 ± 0.092 |
| CUCCAU | 1.58 ± 0.035 | 1.82 ± 0.057 |
| CUCAAG | 1.67 ± 0.022 | 1.84 ± 0.033 |
| CUCAAU | 1.55 ± 0.057 | 1.71 ± 0.082 |
| CUCAAC | 1.66 ± 0.033 | 1.8 ± 0.1 |
| CUCAAA | 1.38 ± 0.12 | 1.59 ± 0.076 |
| GUCAUU | 1.66 ± 0.061 | 1.81 ± 0.12 |

| Variant | normalized RNA/DNA level without ligand (log10) (cyclic di-GMP [1]) | normalized RNA/DNA level with ligand (log10) (cyclic di-GMP [2]) |
| --- | --- | --- |
| GUCAUG | 1.61 ± 0.037 | 1.75 ± 0.11 |
| GUCAUA | 1.57 ± 0.025 | 1.76 ± 0.14 |
| CUCCUU | 1.61 ± 0.071 | 1.79 ± 0.051 |
| CUCCUG | 1.78 ± 0.065 | 1.85 ± 0.13 |
| CUCCUC | 1.76 ± 0.026 | 1.87 ± 0.11 |
| AUCCCA | 1.76 ± 0.024 | 1.86 ± 0.091 |
| AUCCCC | 1.8 ± 0.048 | 1.92 ± 0.099 |
| AUCCCU | 1.7543 ± 0.001 | 1.91 ± 0.07 |
| AUCAAA | 1.57 ± 0.059 | 1.77 ± 0.074 |
| AUCAAG | 1.57 ± 0.1 | 1.76 ± 0.062 |
| AUCAAC | 1.61 ± 0.063 | 1.8 ± 0.09 |
| AUCAAU | 1.64 ± 0.026 | 1.77 ± 0.15 |
| UUCCAU | 1.73 ± 0.028 | 1.85 ± 0.15 |
| UUCCAC | 1.7863 ± 0.00044 | 1.88 ± 0.13 |
| UUCCAG | 1.76 ± 0.022 | 1.89 ± 0.093 |
| UUCCAA | 1.7 ± 0.037 | 1.84 ± 0.13 |
| AUCACG | 1.64 ± 0.012 | 1.78 ± 0.13 |
| AUCACA | 1.64 ± 0.069 | 1.8 ± 0.062 |
| AUCACU | 1.74 ± 0.057 | 1.88 ± 0.12 |
| AUCACC | 1.77 ± 0.035 | 1.87 ± 0.068 |
